This note sets out measurements from the nanobody polyreactivity screen of Harvey et al. (2022).

This data set is described as follows: yeast display, Sf9 membrane polyspecificity reagent, FACS + sequencing; frameworks hold sequencing errors. In short, it runs like this:
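Galactose induction of a Saccharomyces cerevisiae BJ5465 synthetic nanobody display library ran 36–48 hours. The cells were then stained for 1 hour at 4 °C with 10% biotinylated, detergent-solubilized Sf9 membrane reagent, pulled down on streptavidin microbeads and FACS-sorted into low and high (top ~1%) gates on expression and reagent-binding fluorescence. Labels for polyreactivity follow the gate of origin.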
For the sequence “QVQLVESGGGLVQAGGSLRLSCAASGQTFRRYDMGWYRQAPGKEREFVAAITWSTGSTYYADSVKGRFTISRDYAKNTVYLQMNSLKPEDTAGYYCAARSGYFYRYYKYDYWGQGTQVTVSS”, the “polyreactivity (PSR sort gate)” value is “high polyreactivity”.
Then “QVQLVESGGGLVQAGGSLRLSCAASGRFFSNNAMGWYRPAPGKERELVAAIDSSGDSTNYADSVKGRFTISRDIAKNTVYLQMNSLKPEDTAVYYCNALQRGRRVWQYLYGYWGQGTQVNVSS”, with “high polyreactivity”.
The same measure for “QVQLVESGGGLVQAGGSLRLSCAASGRICDFYSMGWYRQAPGKERELVAAIDSDGSTNYADSVKGRFTISRDNAKNNVYLQMNSLKPEDTAVSYCNADIWAYTYRRYDYWGQGTQVTVSS”: “low polyreactivity”; for “QVQLVESGGGLVQAGGSLRLSCAASGRICGSYAMGWYRQAPGKERELVADISWRGTSTYYADSVKGRFTISRDIAKNTVYLQMNSLKPEDTAVYYCAARGLWPYDYWGQGTQVTVSS”: “low polyreactivity”.
On to “QVQLVESGGGLVQAGGSLRLSCAASGRICKRNAMGWYRQAPGKERELVAAITWSGGSTYYADSVKGRFTISRDNAKNTVYLQMNSLKPEDTAVYYCAALRVQGDYDYWGQGTQVTVSS”, for which the “polyreactivity (PSR sort gate)” value was “high polyreactivity”.
The same measure for “QVQLVESGGGLVQAGGSLRLSCAASGRICPGYVMGRYRQAPGKERELVAAITSTGRTYYADSVKGRFTISRDNEKKTVYLQMNSLKPEDTAVYYCAAVRSYYRGYDYWGQGTQVTVSS”: “high polyreactivity”; for “QVQLVESGGGLVQAGGSLRLSCAASGRIDVSNAMGWYRQAPGKERELVAAITRTGASTYYADSVKGRCTISRDNAKNNVYVQMNSLKPEDSAVYYSDDVWGWPYWVYRYDYWGQGTQVTVSS”: “high polyreactivity”; for “QVQLVESGGGLVQAGGSLRLSCAASGRIFADNAMGWYRQAPGKERELVADITYSGGSTYYADSVKGRFTISRDNAKNTVYLQMNSLNPEDTAVYYCAKQGVDYWGQGTQVTVSS”: “low polyreactivity”.
Then “QVQLVESGGGLVQAGGSLRLSCAASGRIFADYGMGWYRQAPGKERELVAAITDRGGTTYYADSVKGRFTISRDNAKNTVYLQMNSLKPEDTAVYYCAADTPDAPDYSGFYYWGQGTQVTVSS”, with “low polyreactivity”.
The same measure for “QVQLVESGGGLVQAGGSLRLSCAASGRIFAENAMGWYRQAPGKERELVAAISRTGSRTYYADSVKGRFTISRDNAKNTVYLQMNSLKPEDSAVYYCNKVSAQDEFRSRGYWGQGTQVTVSS”: “high polyreactivity”; for “QVQLVESGGGLVQAGGSLRLSCAASGRIFAGYAMGWYRQAPGKEREFVATITSRAGNTYYADSVKGRFTISRDNAKNTVYLQMNSLKPEDTGVYYCAARSRGWAGYYYWYKDYSWGQGTQVTVSS”: “high polyreactivity”.
Regarding “QVQLVESGGGLVQAGGSLRLSCAASGRIFAHNAMGWYRQAPGKERELGASINSGGSTTYADSVKGRFTISRDNAKNTVYLQMNSLKPEDTAVYDCAKRDKYGKYDYWGQGTQVTVSS”, the “polyreactivity (PSR sort gate)” value is listed as “low polyreactivity”.
Consider “QVQLVESGGGLVQAGGSLRLSCAASGRIFAHYAMGWYRQAPGKERELVAAIRRSGVSTYYADSVKGRFTSSRDNAKNTVYLQMNSLKPEDTAVYYCNARAYVSPYDYWGQGTQVTVSS”, for which the “polyreactivity (PSR sort gate)” value is given as “low polyreactivity”.
Then “QVQLVESGGGLVQAGGSLRLSCAASGRIFAIYAAIGWYRQAPGKERELVAAISSGDNTNYADSEKGRFTISRDNAKNTVYLQMNSLIPEDTAVYYCATDLVYYAAVTKFAEYDYWGQGTQVTVSS”, with “low polyreactivity”.
Regarding “QVQLVESGGGLVQAGGSLRLSCAASGRIFAPYAMGWYRQAPGKERELVAAITSGGSTNYADSVKGRFTISRDNAKNTVYVQMNSLKPEDTAVYYCAAEASYNYGKYVVTYDYWGQGTQVTVSS”, the “polyreactivity (PSR sort gate)” value is reported as “high polyreactivity”.
The same measure for “QVQLVESGGGLVQAGGSLRLSCAASGRIFAPYDMGWYRQAPGKERELVASITSGGSTNYTDSVKGRFTISRDNAKNTVYLQMNSLKPEDTAVYYCNTAKISEPTDPLQRVWGGTYDYWGQGTQVTVSS”: “low polyreactivity”; for “QVQLVESGGGLVQAGGSLRLSCAASGRIFARNALGWYRQAPGKEGELVARIRASGGSTYYADSVKGRFTISRDNEKNTVYLQMNSLKPEDTAVYYCNARTSSPYRVDYWGQGTQVTVSS”: “high polyreactivity”; for “QVQLVESGGGLVQAGGSLRLSCAASGRIFARNAMGWYREAPGKERELVATIRVGGGSTYYADSVKGRFTISRHNAKNTVYLQMNSLKPEDTAVYYCAVRQLYSYPGDRRGYYWGQGTQVNVSS”: “low polyreactivity”.
The same measure for “QVQLVESGGGLVQAGGSLRLSCAASGRIFARNAMGWYRQAPGKERELVAGITWSGSSTYYADSVKGRFTISRDNAKNTVYLQMNSLKPEDTAVYYCAVDYYVGSLRIDHDYWGQGTQVTVSS”: “low polyreactivity”; for “QVQLVESGGGLVQAGGSLRLSCAASGRIFARNAMGWYRQAPGKERELVATIRVGGGSTYYADSVKGRFTISRDNAKNTVYLQMNSLKPEDTAVYYCAVRQLYSYPGDRRGYYWGQGTQVTVSS”: “low polyreactivity”; for “QVQLVESGGGLVQAGGSLRLSCAASGRIFARYAMGWNRQAPGKERELVAAISFRGGSTYYADSVKGRFTISRDNAKNTVYLQINSLKPEDTAVYYWNARYGRGGYDYWGQGTQVTVSS”: “high polyreactivity”.
Then “QVQLVESGGGLVQAGGSLRLSCAASGRIFARYAMGWYRPAPGKERELVAAITKSVGSTYYADSVKGRFTISRDNAKYTVYLQMNRLKPEDTAVYYCNAVARGYGYDYWGQGTQVTVSS”, with “high polyreactivity”.
With “QVQLVESGGGLVQAGGSLRLSCAASGRIFARYAMGWYRQAPGKETELVAAISRGGSTKYADSVKGRFTISRDNAKNTVYLQMNSLNPVDTAVYYCARQLWGSPYGAYYAGDYWGQGTQVTVSS”, the “polyreactivity (PSR sort gate)” value is “low polyreactivity”.
Then “QVQLVESGGGLVQAGGSLRLSCAASGRIFARYAMGWYRQAPGKQRELVAAITVSGDNTYYADSVKGRFTISRDNAKNTVYLQMNSLKPEDTAVYYCAVRAVLLFGFFDYDYWGQGTQLTVSS”, with “low polyreactivity”; and “QVQLVESGGGLVQAGGSLRLSCAASGRIFARYTMGWYRQAPGKEREFVAGIRSSGGRTYYADSVKGRFTISRDNAKNTVYLQMNSLKPEDTAVYYCKAGGSWYFARYDYWGQGTLVTVSS”, with “low polyreactivity”.
The same measure for “QVQLVESGGGLVQAGGSLRLSCAASGRIFASYAMGWYRQAPGKERELVASISKSVGRTYYSDSVKGRFTISRDNAKNTVYLQMNSLKPEDTAVYDCAAISYFPLRTRYERWFYYWGQGTQVTVSS”: “high polyreactivity”; for “QVQLVESGGGLVQAGGSLRLSCAASGRIFATNGMGWYRQATGKERELVATSTRSAGRTYYADSVKGRFTISRDNAKNTVYLQMNSLKPEDTAVYYCAADGYSTAVDDTVRYIVEYEYWGQGTQVTVSS”: “low polyreactivity”; for “QVQLVESGGGLVQAGGSLRLSCAASGRIFATYAMGWSRQAPGKERELVAAISDGGGITYYADSVKGRFTISRDNAKNTVYLQMNSLKPDDTAVYYCARTYARYNFGYWGQGTQVTVSS”: “low polyreactivity”.
The same measure for “QVQLVESGGGLVQAGGSLRLSCAASGRIFAVYAMGWYRQAPGKEREFVAAISYSGGITYYADSVKGRFTISRDTAKNTVYLQMNSLKPEDTAVYYCNAYYYFWGQGTQVTVSS”: “low polyreactivity”; for “QVQLVESGGGLVQAGGSLRLSCAASGRIFAVYAMGWYRQAPGKERELVAAINWNDGSTYYADSVKGRFTISRDNAKNTVYLQMNSLKPEDTAVYYCAARALSRSVYGKSGYKYGYWGQGTQVTVSS”: “high polyreactivity”; for “QVQLVESGGGLVQAGGSLRLSCAASGRIFAWYAMGWYRQAPGKEREFVAASTYRAARTYYADSVKGRFTISRDNAKNTVYLQMNSLNPEDTAVYYCNRQFGRRVYISHPGPGYWGQGTQVTVSS”: “high polyreactivity”.
“QVQLVESGGGLVQAGGSLRLSCAASGRIFAWYTMVWYRQAPGKERELVATISSSGGSTYYADSVKGLFTISRDNAKNTVYLQMNSLKPEDTAVYYCAAQYYPYSYAHRYGYCGQGTQVTVSS”: the “polyreactivity (PSR sort gate)” value is recorded as “high polyreactivity”.
On to “QVQLVESGGGLVQAGGSLRLSCAASGRIFAYNAMGWYRPAPGKERELVADISSGGNTYYADSVKGRFTISRDNAKNTVYLQMNSLKPEDTAVYYCAADIAWYTHYHRIFDYWGQGTQVTVSS”, for which the “polyreactivity (PSR sort gate)” value is “low polyreactivity”.
For “QVQLVESGGGLVQAGGSLRLSCAASGRIFAYNAMGWYRQAPGKERELVAAIDWSGGRTYYADSVKGRFTISRDNEKNTVYLQMNSLKPEDTAVYYCATDVNSYGYYYWGQGTQVTVSS”, the “polyreactivity (PSR sort gate)” value was “high polyreactivity”.
For “QVQLVESGGGLVQAGGSLRLSCAASGRIFAYNAMGWYRQAPGKEREVVAAIDSGGDTNYADSVKGRFTISRDNAKNTVYLQMNSLKPEDTAVYYCNVTYSGQATFAYTDSARYDYWGQGTQVTVSS”, the “polyreactivity (PSR sort gate)” value is “low polyreactivity”.
The same measure for “QVQLVESGGGLVQAGGSLRLSCAASGRIFAYYAMGWNRQAPGKERELVAAISRSGVSTYYADSVKGRFTISRDNAKNTVYLQRNSLKPEDTAVYYCAARWRSGFTSGDYWGQGTLVTVSS”: “low polyreactivity”; for “QVQLVESGGGLVQAGGSLRLSCAASGRIFAYYAMGWYRQAPGKERELGATITGGGDRTYYADSVKGRFTISRDNAKNTVYLQMNSLKPEDTAVYYCNARVWYYSPYYYWGQRTQVTVSS”: “low polyreactivity”.
As to “QVQLVESGGGLVQAGGSLRLSCAASGRIFAYYAMGWYRQAPGKERELVAAINTSGATTNYADSVKGRFTISRDKAKNTVYLQMNSLKPEDTAVYYCAAWKGVYTYNYWGQGTQVTVSS”, the “polyreactivity (PSR sort gate)” value is “high polyreactivity”.
As to “QVQLVESGGGLVQAGGSLRLSCAASGRIFAYYAMGWYRQAPGKERELVAAISSGGTTNYADSVKGRFTISRDNAKNTVYLQMNSLKPEDTAVYYCNADGWRRSRQYYYWGQGTQVTVSS”, the “polyreactivity (PSR sort gate)” value is given as “low polyreactivity”.
The same measure for “QVQLVESGGGLVQAGGSLRLSCAASGRIFAYYAMGWYRQAPGKERELVAAITSRGGRTYYADSVKGRFTISRDNAKNTVYLQMNSLKPEDTAVYYCAAKGRPDGKYDYWGQGTQVTVSS”: “high polyreactivity”.
